From US10894091B2, “Linker units and molecular constructs comprising the same” (priority 2017, dated 2021)
maleimide‑FITC = FITC conjugated through maleimide to the Cys of the Cys-containing CCK8 peptide

Legend:
[1] = target: T1, human CCK8-type B receptor molecules on Panc-1 tumor cell line (Homo sapiens, UniProt P32239); assay: Staining analysis (FACS) of binding of CCK8 peptide to CCK-type B receptor-expressing tumor cell line; assay type: cell-based; conditions: 150 μg/ml CCK8-FITC reaction mixture, on ice 30 minutes, FIG. 24
T1 construct: human CCK8-type B receptor molecules on Panc-1 tumor cell line; endogenous in cells; host or cells: Panc-1 pancreatic carcinoma cell line
T1 sequence (P32239 1-447): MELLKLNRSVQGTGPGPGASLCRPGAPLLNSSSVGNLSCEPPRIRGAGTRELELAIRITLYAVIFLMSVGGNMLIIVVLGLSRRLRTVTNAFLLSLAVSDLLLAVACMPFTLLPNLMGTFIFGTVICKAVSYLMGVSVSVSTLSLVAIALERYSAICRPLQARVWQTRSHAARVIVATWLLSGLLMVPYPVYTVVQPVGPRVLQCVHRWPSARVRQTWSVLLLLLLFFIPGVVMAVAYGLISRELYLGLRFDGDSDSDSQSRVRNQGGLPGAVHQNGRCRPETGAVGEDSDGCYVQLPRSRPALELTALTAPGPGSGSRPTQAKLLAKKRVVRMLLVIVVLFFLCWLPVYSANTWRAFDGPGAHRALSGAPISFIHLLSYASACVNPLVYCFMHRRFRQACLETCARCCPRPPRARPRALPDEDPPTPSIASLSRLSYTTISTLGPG
Method: The CCK8 peptide molecule was analyzed for its ability to bind to human CCK8-type B receptor molecules on Panc-1 tumor cell line. Panc-1 was established from a pancreatic carcinoma, which was extracted via pancreatico-duodenectomy specimen from an individual. Malignancy of this cell line was verified via in vitro and in vivo assays. Prior to staining, the Cys-containing CCK8 peptide was conjugated with maleimide-FITC to produce a FITC-labeled CCK8 peptide as a detective CCK8 molecule with FITC. The assay was then performed by incubating 2×10^6 Panc-1 cells with 150 μg/ml of the reaction mixture of CCK8-FITC molecule in PBS, with 1 FBS and 1% sodium azide on ice for 30 minutes in the dark. The staining of maleimide-FITC alone was used a negative control. The staining of cells was analyzed by FACS (FACSCanto II; BD Biosciences). The x-axis of histogram is the fluorescence intensity. In FIG. 24, the dark area represents the background of fluorescence distribution of Panc-1 cells, the dashed line is the fluorescence distribution of Panc-1 cells stained maleimide-FITC and the dark line is the fluorescence distribution of Panc-1 cells stained CCK8-FITC.

[2] = target: T2, human CD3 on Jurkat T cell line (Homo sapiens, UniProt P07766); assay: Staining analysis (FACS) of binding of anti-CD3 scFv to T cells; assay type: cell-based
T2 construct: human T lymphocyte cell which express the T cell receptor (TcR)/CD3 complexes on the cell surface; endogenous in cells; host or cells: Jurkat T cell line
T2 sequence (P07766 23-207): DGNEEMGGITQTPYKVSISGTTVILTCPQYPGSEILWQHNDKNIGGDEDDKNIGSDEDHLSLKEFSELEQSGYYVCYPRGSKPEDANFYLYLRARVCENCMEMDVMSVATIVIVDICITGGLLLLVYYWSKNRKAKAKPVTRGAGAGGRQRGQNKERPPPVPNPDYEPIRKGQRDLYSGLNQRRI
T2 sequence (P09693 23-182 partner): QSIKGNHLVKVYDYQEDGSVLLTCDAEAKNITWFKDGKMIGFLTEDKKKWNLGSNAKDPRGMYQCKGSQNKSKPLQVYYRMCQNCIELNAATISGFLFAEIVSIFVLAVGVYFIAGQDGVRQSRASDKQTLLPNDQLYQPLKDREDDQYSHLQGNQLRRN
T2 sequence (P04234 22-171 partner): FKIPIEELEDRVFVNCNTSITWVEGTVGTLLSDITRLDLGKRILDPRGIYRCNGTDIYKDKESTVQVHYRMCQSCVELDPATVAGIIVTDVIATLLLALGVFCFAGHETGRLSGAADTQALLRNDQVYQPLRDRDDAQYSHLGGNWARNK
T2 sequence (P20963 22-164 partner): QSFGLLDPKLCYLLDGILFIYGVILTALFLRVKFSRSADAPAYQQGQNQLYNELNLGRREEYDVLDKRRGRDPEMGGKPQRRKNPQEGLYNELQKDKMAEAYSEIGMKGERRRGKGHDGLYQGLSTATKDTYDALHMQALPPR
T2 sequence (P01848 whole entry partner): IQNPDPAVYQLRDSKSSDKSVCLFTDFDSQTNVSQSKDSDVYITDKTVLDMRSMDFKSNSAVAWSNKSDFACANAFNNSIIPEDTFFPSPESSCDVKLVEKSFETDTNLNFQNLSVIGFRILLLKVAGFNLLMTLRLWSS
T2 sequence (P01850 whole entry partner): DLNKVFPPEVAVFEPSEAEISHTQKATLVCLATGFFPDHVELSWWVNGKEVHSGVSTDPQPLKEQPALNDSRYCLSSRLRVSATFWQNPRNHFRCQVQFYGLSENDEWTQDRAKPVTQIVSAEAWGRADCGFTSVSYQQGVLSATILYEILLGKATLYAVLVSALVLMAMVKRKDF
Method: The ability of the mutated teplizumab to bind to human T lymphocytes, which express CD3 was studied with Jurkat T cell line. The mutated teplizumab was analyzed for their ability to bind to human CD3 molecules on Jurkat T cell line. Jurkat cells are immortalized line of human T lymphocyte cell which express the T cell receptor (TcR)/CD3 complexes on the cell surface.
The assay was performed by incubating 2×10^6 Jurkat T cells with 0.1 and 1 μg/ml of the scFv in PBS with 1 FBS and 0.1% sodium azide on ice for 30 minutes. Cells were washed and incubated with FITC-conjugated Protein L (ACROBiosystems Inc., Newark, USA), diluted 1:200 in PBS/FBS, at 4° C. for 30 minutes in the dark. Protein L-FITC and FITC-conjugated rabbit anti-mouse IgG.Fc (AbD Serotec) were used as secondary antibodies. The staining of secondary antibodies alone were as negative controls. OKT3, a mouse monoclonal antibody specific for human CD3, was used as the positive control. The staining of cells was analyzed by FACS (FACSCanto II; BD Biosciences). The x-axis of histogram is the fluorescence intensity.
The purity of DBCO-conjugated scFvs specific for CD3 was identified through Coomassie staining of 12% SDS-PAGE (data not shown).

[3] = flow cytometric analysis, FIG. 23C

Molecule | binding to Panc-1 cells [1] | binding to T cells ([2]; Jurkat T cells, 0.1 and 1 μg/ml scFv, on ice 30 minutes, FITC-conjugated Protein L, FACS, FIG. 23B) | binding to T cells [2, 3]
FITC-labeled CCK8 peptide (Ac-C(maleimide‑FITC)GGGGSDYMGWMDF-NH2; ends and bridges not checked) | bound to Panc-1 cells |  | 
mutated teplizumab: scFv of teplizumab with CDR3 VH cysteine substituted by serine, SEQ ID NO: 21 (protein) scFv: QVQLVQSGGGVVQPGRSLRLSCKASGYTFTRYTMHWVRQAPGKGLEWIGYINPSRGYTNYNQKVKDRFTISRDNSKNTAFLQMDSLRPEDTGVYFCARYYDDHYSLDYWGQGTPVTVSSGSTSGSGKPGSGEGSTKGDIQMTQSPSSLSASVGDRVTITCSASSSVSYMNWYQQTPGKAPKRWIYDTSKLASGVPSRFSGSGSGTDYTFTISSLQPEDIATYYCQQWSSNPFTFGQGTKLQITRGGGGSGGGGSC |  | bound to T cells | bound to T cells
DBCO-conjugated scFv specific for CD3: mutated teplizumab scFv conjugated at C-terminal cysteine with Mal-PEG5-DBCO (conjugate) scFv: QVQLVQSGGGVVQPGRSLRLSCKASGYTFTRYTMHWVRQAPGKGLEWIGYINPSRGYTNYNQKVKDRFTISRDNSKNTAFLQMDSLRPEDTGVYFCARYYDDHYSLDYWGQGTPVTVSSGSTSGSGKPGSGEGSTKGDIQMTQSPSSLSASVGDRVTITCSASSSVSYMNWYQQTPGKAPKRWIYDTSKLASGVPSRFSGSGSGTDYTFTISSLQPEDIATYYCQQWSSNPFTFGQGTKLQITRGGGGSGGGGSC |  |  | bound to T cells
